B1: Refmab #4 (antibody, V domains shown)
VH: QVQLVQSGAEVKKPGESVKVSCKASGYTFTNYGMNWVKQAPGQGLEWMGWINTYTGEPTYADKFQGRVTMTTDTSTSTAYMEIRNLGGDDTAVYYCARWSWSDGYYVYFDYWGQGTSVTVSS
VL: DIVMTQSPDSLTVSLGERTTINCKSSQSVLDSSTNKNSLAWYQQKPGQPPKLLLSWASTRESGIPDRFSGSGSGTDFTLTIDSPQPEDSATYYCQQSAHFPITFGQGTRLEIK
notes: Full-length format is human IgG1 Fc silent (PG-LALA); The alanine scan used IgG or Fab
B2: Refmab #3 (antibody, V domains shown)
VH: QVQLVQSGAEVKKPGSSVKVSCKASGYTFTDYNMHWVRQAPGQGLEWIGYIYPYNGGTGYNQKFKSKATITADESTNTAYMELSSLRSEDTAVYYCARGRPAMDYWGQGTLVTVSS
VL: DIQMTQSPSSLSASVGDRVTITCRASESVDNYGISFMNWFQQKPGKAPKLLIYAASNQGSGVPSRFSGSGSGTDFTLTISSLQPDDFATYYCQQSKEVPWTFGQGTKVEIK
notes: as for B1
B3: Refmab #2 (antibody, V domains shown)
VH: QVQLVQSGAEVKKPGSSVKVSCKASGGTFSDYAISWVRQAPGQGLEWMGRIIPILGVADYAQKFQGRVTITADKSTRTAYMELSSLRSEDTAVYYCARNWADAFDIWGQGTMVTVSS
VL: DIQLTQSPSSLSASVGDRVTITCRASQGISSVLAWYQQKPGKAPKLLIYDASSLESGVPSRFSGSGSGTDFTLTISSLQPEDFATYYCQQFDSSITFGQGTKLEIK
notes: as for B1

Tests used:
Test in all cases: alanine scan, flow cytometry;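 also: HEK293-T cells transiently expressing single-residue alanine mutants of CD33 (alanine swapped to serine), antibody binding read by fluorescence in duplicate, background-subtracted, expressed relative to wild-type CD33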
human CD33 A65S = human CD33 A65S (human, UniProt P20138 18-364)
Sequence of human CD33 A65S (P20138 18-364 A65S limits assumed): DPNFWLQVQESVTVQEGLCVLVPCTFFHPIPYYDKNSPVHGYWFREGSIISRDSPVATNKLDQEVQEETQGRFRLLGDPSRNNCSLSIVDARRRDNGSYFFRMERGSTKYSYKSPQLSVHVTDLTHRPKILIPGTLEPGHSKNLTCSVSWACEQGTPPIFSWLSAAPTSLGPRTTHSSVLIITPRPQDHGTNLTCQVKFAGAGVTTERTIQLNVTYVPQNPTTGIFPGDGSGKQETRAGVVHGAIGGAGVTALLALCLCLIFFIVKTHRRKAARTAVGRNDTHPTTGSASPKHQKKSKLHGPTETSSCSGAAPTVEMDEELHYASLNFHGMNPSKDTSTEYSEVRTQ
Experimental: (§1) An alanine scan on human CD33 was performed to the determine the residues on CD33 that are involved in binding to the antibodies investigated. […] Briefly, a mutation library of CD33 was created by high-throughput, site-directed mutagenesis. Each residue was individually mutated to alanine, with alanine codons mutated to serine. The mutant library was arrayed in 384-well microplates and transiently transfected into HEK293-T. Following transfection, cells were incubated with the indicated antibodies (IgG or Fab) at concentrations pre-determined using an independent immunofluorescence titration curve on wild type CD33. […] Binding of each antibody to each mutant clone was determined in duplicates. For each point, background fluorescence was subtracted from the raw data, which were then normalized to antibody reactivity with wild type CD33.
(§2) Critical residues for antibody binding (outlined in dark grey) were residues whose mutations led to a binding of the test Abs of less than 20%. Additional secondary residues (outlined in light grey) were identified that led to a binding of the test Abs of between 20 and 40% as compared to the wild type CD33.

human CD33 S54A = human CD33 S54A (human, UniProt P20138 18-364)
Sequence of human CD33 S54A (P20138 18-364 S54A limits assumed): as the sequence (P20138 18-364 A65S limits assumed) above, with S37A, S48A counted along it
Experimental: as §1, §2

human CD33 C36A = human CD33 C36A (human, UniProt P20138 18-364)
Sequence of human CD33 C36A (P20138 18-364 C36A limits assumed): as the sequence (P20138 18-364 A65S limits assumed) above, with C19A, S48A counted along it
Experimental: as §1, §2

human CD33 Y50A = human CD33 Y50A (human, UniProt P20138 18-364)
Sequence of human CD33 Y50A (P20138 18-364 Y50A limits assumed): as the sequence (P20138 18-364 A65S limits assumed) above, with Y33A, S48A counted along it
Experimental: as §1, §2

human CD33 T75A = human CD33 T75A (human, UniProt P20138 18-364)
Sequence of human CD33 T75A (P20138 18-364 T75A limits assumed): as the sequence (P20138 18-364 A65S limits assumed) above, with S48A, T58A counted along it
Experimental: as §1, §2

human CD33 L35A = human CD33 L35A (human, UniProt P20138 18-364)
Sequence of human CD33 L35A (P20138 18-364 L35A limits assumed): as the sequence (P20138 18-364 A65S limits assumed) above, with L18A, S48A counted along it
Experimental: as §1, §2

human CD33 V73A = human CD33 V73A (human, UniProt P20138 18-364)
Sequence of human CD33 V73A (P20138 18-364 V73A limits assumed): as the sequence (P20138 18-364 A65S limits assumed) above, with S48A, V56A counted along it
Experimental: as §1, §2

human CD33 L23A = human CD33 L23A (human, UniProt P20138 18-364)
Sequence of human CD33 L23A (P20138 18-364 L23A limits assumed): as the sequence (P20138 18-364 A65S limits assumed) above, with L6A, S48A counted along it
Experimental: as §1, §2

human CD33 R89A = human CD33 R89A (human, UniProt P20138 18-364)
Sequence of human CD33 R89A (P20138 18-364 R89A limits assumed): as the sequence (P20138 18-364 A65S limits assumed) above, with S48A, R72A counted along it
Experimental: as §1, §2

human CD33 Q26A = human CD33 Q26A (human, UniProt P20138 18-364)
Sequence of human CD33 Q26A (P20138 18-364 Q26A limits assumed): as the sequence (P20138 18-364 A65S limits assumed) above, with Q9A, S48A counted along it
Experimental: as §1, §2

human CD33 S71A = human CD33 S71A (human, UniProt P20138 18-364)
Sequence of human CD33 S71A (P20138 18-364 S71A limits assumed): as the sequence (P20138 18-364 A65S limits assumed) above, with S48A, S54A counted along it
Experimental: as §1, §2

human CD33 P72A = human CD33 P72A (human, UniProt P20138 18-364)
Sequence of human CD33 P72A (P20138 18-364 P72A limits assumed): as the sequence (P20138 18-364 A65S limits assumed) above, with S48A, P55A counted along it
Experimental: as §1, §2

human CD33 F44A = human CD33 F44A (human, UniProt P20138 18-364)
Sequence of human CD33 F44A (P20138 18-364 F44A limits assumed): as the sequence (P20138 18-364 A65S limits assumed) above, with F27A, S48A counted along it
Experimental: as §1, §2

human CD33 L38A = human CD33 L38A (human, UniProt P20138 18-364)
Sequence of human CD33 L38A (P20138 18-364 L38A limits assumed): as the sequence (P20138 18-364 A65S limits assumed) above, with L21A, S48A counted along it
Experimental: as §1, §2

human CD33 Y49A = human CD33 Y49A (human, UniProt P20138 18-364)
Sequence of human CD33 Y49A (P20138 18-364 Y49A limits assumed): as the sequence (P20138 18-364 A65S limits assumed) above, with Y32A, S48A counted along it
Experimental: as §1, §2

human CD33 E33A = human CD33 E33A (human, UniProt P20138 18-364)
Sequence of human CD33 E33A (P20138 18-364 E33A limits assumed): as the sequence (P20138 18-364 A65S limits assumed) above, with E16A, S48A counted along it
Experimental: as §1, §2

human CD33 E27A = human CD33 E27A (human, UniProt P20138 18-364)
Sequence of human CD33 E27A (P20138 18-364 E27A limits assumed): as the sequence (P20138 18-364 A65S limits assumed) above, with E10A, S48A counted along it
Experimental: as §1, §2

human CD33 V25A = human CD33 V25A (human, UniProt P20138 18-364)
Sequence of human CD33 V25A (P20138 18-364 V25A limits assumed): as the sequence (P20138 18-364 A65S limits assumed) above, with V8A, S48A counted along it
Experimental: as §1, §2

human CD33 D70A = human CD33 D70A (human, UniProt P20138 18-364)
Sequence of human CD33 D70A (P20138 18-364 D70A limits assumed): as the sequence (P20138 18-364 A65S limits assumed) above, with S48A, D53A counted along it
Experimental: as §1, §2

human CD33 T42A = human CD33 T42A (human, UniProt P20138 18-364)
Sequence of human CD33 T42A (P20138 18-364 T42A limits assumed): as the sequence (P20138 18-364 A65S limits assumed) above, with T25A, S48A counted along it
Experimental: as §1, §2

human CD33 Q87A = human CD33 Q87A (human, UniProt P20138 18-364)
Sequence of human CD33 Q87A (P20138 18-364 Q87A limits assumed): as the sequence (P20138 18-364 A65S limits assumed) above, with S48A, Q70A counted along it
Experimental: as §1, §2

human CD33 P48A = human CD33 P48A (human, UniProt P20138 18-364)
Sequence of human CD33 P48A (P20138 18-364 P48A limits assumed): as the sequence (P20138 18-364 A65S limits assumed) above, with P31A, S48A counted along it
Experimental: as §1, §2

human CD33 F21A = human CD33 F21A (human, UniProt P20138 18-364)
Sequence of human CD33 F21A (P20138 18-364 F21A limits assumed): as the sequence (P20138 18-364 A65S limits assumed) above, with F4A, S48A counted along it
Experimental: as §1, §2

human CD33 I66A = human CD33 I66A (human, UniProt P20138 18-364)
Sequence of human CD33 I66A (P20138 18-364 I66A limits assumed): as the sequence (P20138 18-364 A65S limits assumed) above, with S48A, I49A counted along it
Experimental: as §1, §2

human CD33 V37A = human CD33 V37A (human, UniProt P20138 18-364)
Sequence of human CD33 V37A (P20138 18-364 V37A limits assumed): as the sequence (P20138 18-364 A65S limits assumed) above, with V20A, S48A counted along it
Experimental: as §1, §2

human CD33 Q32A = human CD33 Q32A (human, UniProt P20138 18-364)
Sequence of human CD33 Q32A (P20138 18-364 Q32A limits assumed): as the sequence (P20138 18-364 A65S limits assumed) above, with Q15A, S48A counted along it
Experimental: as §1, §2

human CD33 Q83A = human CD33 Q83A (human, UniProt P20138 18-364)
Sequence of human CD33 Q83A (P20138 18-364 Q83A limits assumed): as the sequence (P20138 18-364 A65S limits assumed) above, with S48A, Q66A counted along it
Experimental: as §1, §2

human CD33 Y59A = human CD33 Y59A (human, UniProt P20138 18-364)
Sequence of human CD33 Y59A (P20138 18-364 Y59A limits assumed): as the sequence (P20138 18-364 A65S limits assumed) above, with Y42A, S48A counted along it
Experimental: as §1, §2

human CD33 N76A = human CD33 N76A (human, UniProt P20138 18-364)
Sequence of human CD33 N76A (P20138 18-364 N76A limits assumed): as the sequence (P20138 18-364 A65S limits assumed) above, with S48A, N59A counted along it
Experimental: as §1, §2

human CD33 D51A = human CD33 D51A (human, UniProt P20138 18-364)
Sequence of human CD33 D51A (P20138 18-364 D51A limits assumed): as the sequence (P20138 18-364 A65S limits assumed) above, with D34A, S48A counted along it
Experimental: as §1, §2

human CD33 L78A = human CD33 L78A (human, UniProt P20138 18-364)
Sequence of human CD33 L78A (P20138 18-364 L78A limits assumed): as the sequence (P20138 18-364 A65S limits assumed) above, with S48A, L61A counted along it
Experimental: as §1, §2

human CD33 V39A = human CD33 V39A (human, UniProt P20138 18-364)
Sequence of human CD33 V39A (P20138 18-364 V39A limits assumed): as the sequence (P20138 18-364 A65S limits assumed) above, with V22A, S48A counted along it
Experimental: as §1, §2

| Binder | Mean % WT Binding (human CD33 A65S) [% WT] | Mean % WT Binding (human CD33 S54A) [% WT] | Mean % WT Binding (human CD33 C36A) [% WT] | Mean % WT Binding (human CD33 Y50A) [% WT] | Mean % WT Binding (human CD33 T75A) [% WT] | Mean % WT Binding (human CD33 L35A) [% WT] | Mean % WT Binding (human CD33 V73A) [% WT] | Mean % WT Binding (human CD33 L23A) [% WT] | Mean % WT Binding (human CD33 R89A) [% WT] | Mean % WT Binding (human CD33 Q26A) [% WT] | Mean % WT Binding (human CD33 S71A) [% WT] | Mean % WT Binding (human CD33 P72A) [% WT] | Mean % WT Binding (human CD33 L38A) [% WT] | Mean % WT Binding (human CD33 Y49A) [% WT] | Mean % WT Binding (human CD33 E33A) [% WT] | Mean % WT Binding (human CD33 E27A) [% WT] | Mean % WT Binding (human CD33 V25A) [% WT] | Mean % WT Binding (human CD33 D70A) [% WT] | Mean % WT Binding (human CD33 T42A) [% WT] | Mean % WT Binding (human CD33 Q87A) [% WT] | also measured |
| --- | --- | --- | --- | --- | --- | --- | --- | --- | --- | --- | --- | --- | --- | --- | --- | --- | --- | --- | --- | --- | --- |
| B1 | 84 | 99.9 | 108 | 3.5 | 93.8 | 94.5 | 67.2 | 23.7 | 71.6 | 63.1 | 99.4 | 94.6 | 96.8 | 3.1 | 87.1 | 42.9 | 49.1 | 82.7 | 67.4 | 94.2 | Mean % WT Binding (human CD33 F44A): 152 % WT; Mean % WT Binding (human CD33 P48A): 8.4 % WT; Mean % WT Binding (human CD33 F21A): 43.6 % WT; Mean % WT Binding (human CD33 I66A): 108 % WT; Mean % WT Binding (human CD33 V37A): 78.7 % WT; Mean % WT Binding (human CD33 Q32A): 83 % WT; Mean % WT Binding (human CD33 Q83A): 104 % WT; Mean % WT Binding (human CD33 Y59A): 97.6 % WT; Mean % WT Binding (human CD33 N76A): 34.7 % WT; Mean % WT Binding (human CD33 D51A): 36 % WT; Mean % WT Binding (human CD33 L78A): 111 % WT; Mean % WT Binding (human CD33 V39A): 58.4 % WT |
| B2 | 143 | 106 | 102 | 109 | 118 | 102 | 149 | 91.5 | 126 | 124 | 118 | 108 | 192 | 86.6 | 94.9 | 153 | 109 | 131 | 198 | 161 | Mean % WT Binding (human CD33 P48A): 167 % WT; Mean % WT Binding (human CD33 F21A): 13.6 % WT; Mean % WT Binding (human CD33 I66A): 126 % WT; Mean % WT Binding (human CD33 V37A): 150 % WT; Mean % WT Binding (human CD33 Q32A): 133 % WT; Mean % WT Binding (human CD33 Q83A): 103 % WT; Mean % WT Binding (human CD33 Y59A): 145 % WT; Mean % WT Binding (human CD33 N76A): 148 % WT; Mean % WT Binding (human CD33 D51A): 126 % WT; Mean % WT Binding (human CD33 L78A): 113 % WT; Mean % WT Binding (human CD33 V39A): 122 % WT |
| B3 | 112 | 112 | 117 | 141 | 114 | 119 | 99.1 | 83.4 | 98.7 | 111 | 112 | 114 | 112 | 44.2 | 120 | 111 | 87.1 | 110 | 112 | 118 | Mean % WT Binding (human CD33 F44A): 1.2 % WT; Mean % WT Binding (human CD33 P48A): 109 % WT; Mean % WT Binding (human CD33 F21A): 120 % WT; Mean % WT Binding (human CD33 I66A): 118 % WT; Mean % WT Binding (human CD33 V37A): 118 % WT; Mean % WT Binding (human CD33 Q32A): 108 % WT; Mean % WT Binding (human CD33 Q83A): 107 % WT; Mean % WT Binding (human CD33 Y59A): 95.7 % WT; Mean % WT Binding (human CD33 N76A): 106 % WT; Mean % WT Binding (human CD33 D51A): 59 % WT; Mean % WT Binding (human CD33 L78A): 108 % WT; Mean % WT Binding (human CD33 V39A): 111 % WT |

— patent US20260242735A1 (UNIVERSIT T BASEL, published 2026)
